The values that follow come from patent US20120114652A1.

Test [1] addresses Antibody 16, IgG1, not germlined. As to the kind of experiment: competition binding assay: Antibody 16 IgG adsorbed to the plate, biotinylated active human PAI-1 at about its KD, dilution series of the unlabelled competitor (the varied molecule), detection with streptavidin-Europium.
The next test deals with T1, rat PAI-1 (rat) (UniProt P20961).
T1 sequence: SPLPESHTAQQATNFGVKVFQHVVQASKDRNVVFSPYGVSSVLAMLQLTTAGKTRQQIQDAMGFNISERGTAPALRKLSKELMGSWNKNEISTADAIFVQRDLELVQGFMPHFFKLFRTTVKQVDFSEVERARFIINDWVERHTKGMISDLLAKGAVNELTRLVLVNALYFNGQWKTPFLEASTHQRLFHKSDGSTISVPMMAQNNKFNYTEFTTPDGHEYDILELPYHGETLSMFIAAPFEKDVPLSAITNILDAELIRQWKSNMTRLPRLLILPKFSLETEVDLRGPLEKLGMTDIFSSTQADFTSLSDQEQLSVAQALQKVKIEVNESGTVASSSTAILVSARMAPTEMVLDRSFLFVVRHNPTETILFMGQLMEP
As to the kind of experiment: cell-based or functional assay.

Test [2] deals with human PAI-1, active, wild-type, non-glycosylated (E. coli-derived) (human) (UniProt P05121). As to the kind of experiment: cell-based or functional assay.
The target in another test is T2, mouse PAI-1 (mouse) (UniProt P22777).
T2 sequence: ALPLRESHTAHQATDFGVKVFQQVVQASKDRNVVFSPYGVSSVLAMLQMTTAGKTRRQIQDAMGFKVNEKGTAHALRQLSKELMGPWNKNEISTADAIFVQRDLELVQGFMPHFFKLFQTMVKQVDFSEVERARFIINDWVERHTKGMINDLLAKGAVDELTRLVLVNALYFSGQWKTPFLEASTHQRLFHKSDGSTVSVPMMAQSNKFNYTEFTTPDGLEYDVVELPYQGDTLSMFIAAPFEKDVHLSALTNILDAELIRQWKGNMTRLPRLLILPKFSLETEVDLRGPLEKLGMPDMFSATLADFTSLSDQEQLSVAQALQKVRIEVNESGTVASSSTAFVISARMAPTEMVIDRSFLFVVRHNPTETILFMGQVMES
Nature of the test: cell-based or functional assay.

Test [3] concerns the target cynomolgus PAI-1 (cynomolgus). Nature of the test: cell-based or functional assay.

B1: rat PAI-1 (protein)
chain: T1 sequence
Take B1: the IC50 (read off the curve) in test [1] is 2 nM.

B2: PICK167_A01 scFv (scFv)
scFv: QVQLQQSGAEVKKPGSSVKVSCKASGGTFSSYAISWVRQAPGQRLEWMGGIIPTFGTANYAQKFQGRVTITADESTSTAYMELSGLRSEDTAVYYCARERRQWLEGHFDYWGRGTPVTVSSGGGGSGGGGSGGGGSDIQMTQSPSFLSASIGDRVTITCRASEGIYHNLAWYQQKPGKAPKLLIYKASSLASGAPSRFSGSRSGTDFTLTISSLQPDDFATYYCQQYSNYPLTFGGGTKLEIKR
Turning to B2, the values for the IC50, HT1080 plasminogen activation assay (with rat PAI-1 (rat); in test [2]; with mouse PAI-1 (mouse)) were 49 nM, 22 nM and 25 nM, respectively. Also, the IC50, PAI-1:tPA functional assay with rat PAI-1 (rat) came out at 2.98 nM; in test [2], 3.2 nM; in test [3], 1.02 nM. Besides, the pIC50, HT1080 plasminogen activation assay with rat PAI-1 (rat) is 7.31; in test [2] it was 7.65; in the test with mouse PAI-1 (mouse), 7.6.

B3: mouse PAI-1 (protein)
chain: T2 sequence
Regarding B3, the IC50 (read off the curve) in test [1] stood at 5 nM.
